The values that follow come from US20060234944A1, “Beta-secretase inhibitors and methods of use” (Oklahoma Medical Reseach Foundation, priority 2001, published 2006).

As a reminder, the Ki is the equilibrium dissociation constant of an inhibitor or competing ligand from its target. Higher therefore signals weaker binding.

In this assay the target is memapsin 2 (spontaneously activated promemapsin 2-T1; amino acids 43-456 and 45-456 of SEQ ID NO: 8) (human) (UniProt P56817). The assay can be described thus: kinetic inhibition experiment (procedure of Ermolieff et al.).
Sequence of memapsin 2 (spontaneously activated promemapsin 2-T1; amino acids 43-456 and 45-456 of SEQ ID NO: 8) (human) (P56817 41-454): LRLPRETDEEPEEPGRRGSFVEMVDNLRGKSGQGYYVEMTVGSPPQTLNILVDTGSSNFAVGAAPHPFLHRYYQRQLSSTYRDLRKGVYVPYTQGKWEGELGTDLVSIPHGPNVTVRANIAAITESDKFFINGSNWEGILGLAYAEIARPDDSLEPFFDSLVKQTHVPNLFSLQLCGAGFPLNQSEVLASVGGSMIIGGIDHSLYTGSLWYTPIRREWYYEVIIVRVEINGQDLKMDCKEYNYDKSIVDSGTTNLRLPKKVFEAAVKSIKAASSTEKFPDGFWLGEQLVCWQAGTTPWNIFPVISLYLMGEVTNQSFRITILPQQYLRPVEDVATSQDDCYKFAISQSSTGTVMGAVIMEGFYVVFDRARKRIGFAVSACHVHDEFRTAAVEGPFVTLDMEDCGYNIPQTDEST

Where no end group is shown, it is not given here. [ ]: non-standard residue; d: D form. FAM = 5-(and 6-)carboxyfluorescein; Ahx = NCCCCCC(=O)O

ELDLAVEFGG[dR][dR][dR][dR][dR][dR][dR][dR][dR] (also: hydroxyethylene isostere between Leu4 and Ala5) [CPI-3: (ELDL*AVEF)-GG-(…)] showed a Ki of 0.035 µM.

B1: CPI-2: FAM-Ahx-(ELDL*AVEF)-GG-(…) (peptide)
peptide: {FAM-Ahx}-ELDLAVEFGG[dR][dR][dR][dR][dR][dR][dR][dR][dR]
modifications: numbers in words are those of the source; also: hydroxyethylene isostere between Leu5 and Ala6
For the molecule B1, the Ki apparent is 0.058 µM.
